B1: EB1-GST (natural protein, human, UniProt Q15691 1-268, looked up)
chain: MAVNVYSTSVTSDNLSRHDMLAWINESLQLNLTKIEQLCSGAAYCQFMDMLFPGSIALKKVKFQAKLEHEYIQNFKILQAGFKRMGVDKIIPVDKLVKGKFQDNFEFVQWFKKFFDANYDGKDYDPVAARQGQETAVAPSLVAPALNKPKKPLTSSSAAPQRPISTQRTAAAPKAGPGVVRKNPGVGNGDDEAAELMQQVNVLKLTVEDLEKERDFYFGKLRNIELICQENEGENDPVLQRIVDILYATDEGFVIPDEGGPQEEQEEY
notes: also called GST-tagged EB1; source: E. coli BL21 DE3, purified (Glutathione Sepharose)

Settings in all cases: both partners purified
The target in assay [1] is T1, 6xHis-tagged WT Ska1 (human, UniProt Q96BD8 1-255).
T1 construct: WT Ska1 from the plasmid pEC-S-CDF-His Ska1; Probably whole Ska1 (1-255); also called 6xHis Ska1 WT; 6xHis-Ska1; source: E. coli BL21 DE3, purified (Ni2+-NTA)
T1 sequence (Q96BD8 whole entry): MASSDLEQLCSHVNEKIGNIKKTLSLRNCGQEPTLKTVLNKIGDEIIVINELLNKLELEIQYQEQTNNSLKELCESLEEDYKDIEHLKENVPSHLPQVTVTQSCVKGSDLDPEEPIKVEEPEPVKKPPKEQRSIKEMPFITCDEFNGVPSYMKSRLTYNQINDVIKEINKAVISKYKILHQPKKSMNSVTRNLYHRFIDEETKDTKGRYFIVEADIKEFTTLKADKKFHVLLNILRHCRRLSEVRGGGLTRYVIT
Put plainly: pull-down; competition: EB1-GST preincubated with the SXIP peptide aptamer for 2 h, GSH beads added, then incubated with Ska1 WT protein; rising doses of peptide.

Assay [2] has as its target T1, 6xHis-tagged WT Ska1. The assay is described as follows: high-speed atomic force microscopy (HS-AFM); proteins (10-30 nM; 10 nM in the frames shown) in BRB80 buffer (80 mM Pipes, 1 mM EGTA, 1 mM MgCl2, pH 6.9) on mica, tapping mode, 150 ms per frame; EB1 alone, Ska1 alone and their mixture.
Assay [3] deals with B1. The assay is described as follows: pull-down.

With B1, the binding result in assay [1] is given as “binds”.

B2: recombinant EB1 (HS-AFM and microtubule experiments) (natural protein, human, UniProt Q15691 1-268, looked up)
chain: MAVNVYSTSVTSDNLSRHDMLAWINESLQLNLTKIEQLCSGAAYCQFMDMLFPGSIALKKVKFQAKLEHEYIQNFKILQAGFKRMGVDKIIPVDKLVKGKFQDNFEFVQWFKKFFDANYDGKDYDPVAARQGQETAVAPSLVAPALNKPKKPLTSSSAAPQRPISTQRTAAAPKAGPGVVRKNPGVGNGDDEAAELMQQVNVLKLTVEDLEKERDFYFGKLRNIELICQENEGENDPVLQRIVDILYATDEGFVIPDEGGPQEEQEEY
notes: recombinant EB1 with N-terminal calponin homology domains (EB1-N), linker and C-terminal dimer region (EB1-C) seen by HS-AFM; The only EB1 expression construct that the methods describe is GST-tagged EB1 in pGEX 5x3; also called EB1 dimer; source: recombinant
As for B2, the binding result in assay [2] is reported as “binds”.

Regarding ALNGQSRIPVLKRHTR [SXIP peptide aptamer], the “percent reduction of EB1-Ska1 association at 1:5 M ratio of EB1:peptide” value in assay [3] was roughly 70%.

The values above are taken from publication PMC9926122, “Kinetochore-microtubule attachment in human cells is regulated by the interaction of a conserved motif of Ska1 with EB1” (The Journal of Biological Chemistry, 2022).
